± gives the uncertainty stated by the source.

The nature of this data set: amyloid nucleation score (Sup35N fusion, yeast selection) (log enrichment); library NNK3; higher = more nucleation; inactive = no reads after selection. The gist of the method:
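DiMSum was used to calculate nucleation scores as log enrichment of output over input reads, centred on the mode score of non-aggregating sequences. Sequences with fewer than 100 input reads were not scored. Input and output came from Illumina sequencing of plasmid inserts in psi-negative yeast expressing peptides of 20 random codons fused to Sup35N, induced 24 hours with 100 μM copper sulfate and then grown 7 days at 30°C on medium lacking adenine and uracil.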
On to YDADRGEWLQLITSPDPFFY, for which the amyloid nucleation score entry is “inactive”. Then YDCVGDGWRPWLRPEDRSHV, with “inactive”; and YDGRIGRYSSYIKKCF, with “inactive”; and YDLCERLR, with “inactive”. For the substance YDLVIGCVMNVLFVLRCATR, the amyloid nucleation score entry was “inactive”.

For the substance YDPFYGNDQVPIQIVFLCFP, the amyloid nucleation score entry is “inactive”. Next, YDRGIVWH: “inactive”. For the substance YEAFADRTPLVFAHSWSMLK, the amyloid nucleation score result was “inactive”. Next, YEGRSNSVRSK: “inactive”; YEHRCCHSNIDIFGLQSRNV: “inactive”; YEIHWSRRKGMWFEYYTFHF: “inactive”. Turning to YEIYQFSYPRFWKYQCNCSS, the amyloid nucleation score entry is “inactive”. Next, YERLLRDKALAPIDPI: “inactive”; YERWKLVHHGKNMYEGVYRL: “inactive”; YEVNGFAQNRA: -0.564 ± 1. Then YEYYGVKRCIVLG, with “inactive”. Then YFGFYSLWYKYYVTSISRSL, with “inactive”. Turning to YFGKAMHLLGYSFETGLDWS, the amyloid nucleation score entry was “inactive”.

Consider YFILLGSAGRCAPMM, for which the amyloid nucleation score was 0.71 ± 0.23. Then YFKVFQVLNLNICYSYRMVN, with “inactive”. Consider YFKWVFKSYKPV, for which the amyloid nucleation score was 1.35 ± 0.12.

With YFLDLL, the amyloid nucleation score result was “inactive”. Next, YFLEGNFESRWGECRSARSW: 0.053 ± 0.52. Next, YFLICIQVHKSMRNCPFYVS: “inactive”; YFNLSEYGLCCYRGFRVYKS: 1.23 ± 0.18. Next, YFSACTVKKHTSWCADVT: “inactive”; YFSSSWGMLKCGFAVFDHLT: “inactive”. For the substance YFVALVS, the amyloid nucleation score entry is “inactive”. As to YFVIIYWLAPHHSNLLISFP, the amyloid nucleation score entry is “inactive”.

YFYSSDALPSIS: the amyloid nucleation score result was “inactive”. Then YGCQSCHGFLCSQFGRPAHS, with 0.976 ± 0.21.

For the substance YGGMVN, the amyloid nucleation score entry was “inactive”. For YGIVYSCCIVSVIEDFKLLK, the amyloid nucleation score worked out at 2.57 ± 0.082. Then YGLIRYPLFIFSALVTT, with “inactive”; and YGMLFYIYYMPRIFQYAVNL, with 1.56 ± 0.065; and YGREMRSSMMNGGYLIIMKW, with “inactive”. Next, YGSVFSMSMTHA: “inactive”; YGWFVDFGEYVTESNVGLY: “inactive”; YGWVVSSLCYGKFYICIWNL: 0.797 ± 0.22.

As for YGYEHALQFIFYLFNHLSWS, the amyloid nucleation score result is “inactive”. Next, YGYSTSFSG: 0.586 ± 0.28; YGYSVPGKIEFYVGVIGRNP: 1.2 ± 0.085; YHCWSDLDKSLELLSQLMFR: “inactive”. Next, YHDFRMLFLWVVWSIVSIRS: “inactive”.

With YHDLKNATHVV, the amyloid nucleation score entry is “inactive”. Consider YHFLACCKLVGRRWWFGLQR, for which the amyloid nucleation score entry was “inactive”. Next, YHIRR: “inactive”; YHYQDNMS: “inactive”; YIALLLLSRWDQTCKGARTG: 0.622 ± 0.18. For the substance YIASLLDYFCMQEDQAYFDY, the amyloid nucleation score entry is “inactive”. As for YICCDIRTRALRIRIRCVLM, the amyloid nucleation score was -0.411 ± 0.75.

Consider YIDTW, for which the amyloid nucleation score result is “inactive”. Next, YIFFWKRTFLP: “inactive”; YIPGGFRNFGMV: “inactive”; YIPIYRFVMIS: “inactive”. Then YISIYFSFNRLIVNATSTTK, with “inactive”; and YITKLTGWTIE, with “inactive”. Then YKCYMFANYGIPVVVLFVVL, with “inactive”. Turning to YKETDLQIFRAIVVSSSYWD, the amyloid nucleation score entry is “inactive”. Next, YKSRGMVYDYFGKMIYHLSG: 0.63 ± 0.13; YKYGFAFCIIASAVSR: “inactive”; YLDRTSSMVTLVVSRGIF: “inactive”.

With YLFGRFPNGLVGRRGSGLLM, the amyloid nucleation score entry was “inactive”. Then YLFPRVSLICERIWIENVGY, with “inactive”; and YLFRVTLNVALILMLSSRCE, with “inactive”; and YLGLRKIWIYL, with “inactive”. Next, YLICDFTFYVRGGGGMSQMT: 0.655 ± 0.28; YLITHV: “inactive”; YLLDRLRVSDGYPLQSPWTT: “inactive”. YLLFIWSAYENKVGIGYITE: the amyloid nucleation score result was “inactive”. Next, YLLVFCSNF: 2.29 ± 0.091; YLMNVLFAYVD: “inactive”.

In turn, YLMVNICMNDPWVYEMVSLY yielded an amyloid nucleation score of 0.902 ± 0.2.

In turn, YLMVTVSALPSACCGVCVPW showed an amyloid nucleation score of 1.48 ± 0.1.

As for YLNDCDFGVVFEMESKLWTA, the amyloid nucleation score result was “inactive”. Then YLRKVSYNMHCRNWSWGDWS, with “inactive”.

On to YLRMLVDELKITHHH, for which the amyloid nucleation score entry was “inactive”. Next, YLRQIYFPCSTP: “inactive”; YLSNLYSPKRNWAAVL: “inactive”.

For the substance YLSRLIIFLSLPD, the amyloid nucleation score entry was “inactive”. Then YLWGGLRMYCRKLQHYFVLS, with “inactive”; and YLYGGVLGVSSDEGLADGKD, with “inactive”; and YMAAVTFFEVY, with 0.012 ± 0.34.

On to YMACGHVAGPVH, for which the amyloid nucleation score result is “inactive”. With YMDRFDK, the amyloid nucleation score result was “inactive”. For the substance YMFVLGYRMNCW, the amyloid nucleation score turned out to be 1.01 ± 0.17. For YMTCTR, the amyloid nucleation score result is “inactive”. Next, YMVMFAPSFSWRVSVQDKGN: 3.08 ± 0.063; YMYELVTSRFKRNQVMCVID: “inactive”; YNECYWK: “inactive”. Next, YNFGVMVWTSDF: 2 ± 0.073; YNKGRNY: “inactive”. Then YNMLCCRLSWRYIDRRQGRR, with 3.17 ± 0.072; and YNMYQTHLSSYNYHQDATKN, with 1.7 ± 0.095; and YNNSTFYTEPTLWD, with “inactive”. Substance YNRANYAKRVCTSSVNVETE yielded an amyloid nucleation score of 0.294 ± 0.47. Regarding YNSYSSYKIVKLY, the amyloid nucleation score result was “inactive”. Then YNYGKGRWHALLDISKVEVK, with “inactive”; and YNYKSLMHLIGYDNRIAESR, with “inactive”.

Substance YPCLSIGFSCSVLRMNVYLW gave an amyloid nucleation score of 0.368 ± 0.21. Next, YPCYLLMGAVLSKPYLTSYV: “inactive”. Then YPGTASAG, with “inactive”. Consider YPLASYGLMCGFETDYPGAA, for which the amyloid nucleation score result is “inactive”. In the case of YPMRCTCMDGGNSWDLM, the amyloid nucleation score turned out to be 0.177 ± 0.27. On to YPPWWFYIRNWLISEEE, for which the amyloid nucleation score entry is “inactive”. Then YPSDPLLILDLGIAAC, with “inactive”; and YPSGPHDCYCHTLYEFPFFL, with “inactive”.

In the case of YQGNLGPHT, the amyloid nucleation score result is “inactive”. Then YQIFYSEVSFLMAG, with “inactive”; and YQKFNKLRLRNLPHLYDFVL, with “inactive”; and YQNVMWLC, with “inactive”.

In the case of YRIESFIGY, the amyloid nucleation score result was “inactive”. YRIWEQTLMFYVNLSRAKCF: the amyloid nucleation score entry is “inactive”. Next, YRLISCLVFISGRFSN: “inactive”; YRLLEQLTLSCWANRVLRLG: -0.077 ± 0.61; YRLRNCFRHMPAAQTFTP: “inactive”. Substance YRLYDQLRGYRGLAYLTYVL registered an amyloid nucleation score of -0.187 ± 0.69. Consider YRMIKHRTFDSPVLFS, for which the amyloid nucleation score entry is “inactive”. Then YRNCLLRDMSWVVDFIDIKT, with “inactive”. Next, YRPAALSYQTRVCGTYWNDR: “inactive”; YRPVQSVQIVHLLSILILVW: “inactive”; YRRGYKITSLLSFYGNHRWP: “inactive”.

Turning to YRRSGTYMSDSGVLVVKVCV, the amyloid nucleation score result was “inactive”.

As for YRSLITLQAIRCGIWFCGLW, the amyloid nucleation score entry was “inactive”. Then YRSSDQDVTVIMCLLANYYN, with 2.37 ± 0.057; and YRYVCWFTTILTYTNGRFSS, with “inactive”; and YRYVNN, with “inactive”. In the case of YRYYFRSEVPEDKEDDGYLL, the amyloid nucleation score entry was “inactive”.

On to YSALRFSKSCGRPCCVYNSF, for which the amyloid nucleation score entry was “inactive”.

YSCYSSLL: the amyloid nucleation score entry is “inactive”. Take YSFHLIIESPKLVLFTHFTS: the amyloid nucleation score result is “inactive”. Then YSGCRVLLQWVEFSCRWIWY, with “inactive”.

The record behind these values is the supplement of paper PMC12042874.
